Here are results for twelve molecules from US20180036405A1 (Regeneron, published 2018).

Changes are numbered by the printed parent chain. In names and notes the source's numbering stands.

The target of experiment [1] is T1, human monomeric EGFR (EGFR.mmh) (human, UniProt P00533 25-647).
T1 construct: Soluble monomeric EGFR construct
The experiment is described as follows: SPR 37C, mAb captured by anti-human Fc, EGFR.mmh analyte. The method, then:
(§1) Different concentrations of human monomeric (EGFR.mmh; SEQ ID NO:386) and dimeric (EGFR.mFc; SEQ ID NO:387) proteins were injected over the anti-EGFR monoclonal antibody captured surface at a flow rate of 50 μI/min. Antibody-antigen association was monitored for 4-5 minutes while dissociation of antigen from the captured monoclonal antibody surface was monitored for 10 min. Kinetic association (kₐ) and dissociation (kd) rate constants were determined by processing and fitting the data to a 1:1 binding model using Scrubber 2.0 curve fitting software.

In experiment [2] the target is T2, human dimeric EGFR (EGFR.mFc) (human).
T2 construct: Soluble dimeric EGFR construct
The experiment is described as follows: SPR 37C, mAb captured by anti-human Fc, EGFR.mFc analyte. The method, then: as §1

Experiment [3] has as its target T3, EGFR on A431 epidermoid carcinoma cells (human, UniProt P00533 25-1210). Kind of experiment: cell-based or functional assay.
Experiment [4] addresses T3, EGFR on A431 epidermoid carcinoma cells. Kind of experiment: cell-based or functional assay. This is another data set of the same source.

B1: H1H163P (antibody, human IgG1, V domains shown)
VH: QVQLVESGGGVVQPGRSLRLSCAASGFTFSNYGMHWVRQAPGKGLEWVTLIEHDGSNKNYVDSVKGRFTISRDNSKNTLYLQMNSLRVEDTAVYYCAKDRITGTPWYGMDVWGQGTTVTVSS
VL: DIQMTQSPSSLSASVGDRVTITCRASQDIADYLAWFQQKPGKAPKSLIFAASSLESWVPLKFSGSGSGTDFTLTISSLQPEDFATYYCQQYNRFPITFGQGTRLEIK
notes: Human IgG1 Fc (H1H)
In experiment [1], B1 yielded a Kd of 834 pM, a dissociation rate constant (koff) of 0.000426 s⁻¹, a kon of 511000 M⁻¹ s⁻¹ and a t1/2 of 27 min. In experiment [2], this molecule showed a Kd of 1.17 pM, a koff of 2.12e-06 s⁻¹, a kon of 1.81e+06 M⁻¹ s⁻¹ and a t1/2 of 90.8 h. Further, in experiment [3], the “ADCC EC50” value came to 2.96e-10 Molar and the “Maximum Cell Killing (%)” value was determined as 48%.

B2: H1H0085N (antibody, V domains shown)
VH: EVQLVESGGGLVQPGRSLRLSCAASGFTFDDYAMHWVRQAPGKGLEWVSGINWNSDKIAYADSVKGRFTISRDNAENSLFLQMNSLRPEDTALYYCVKRGDFWTEYYDYWGQGTLVTVSS
VL: DIVMTQSPLSLPVTPGEPASISCRSSQSLLHSNGYNYLDWYLQKPGQSPHLLIYLVSTRASGVPDRFSGSGSGTDFTLKISRVEAEDVGVYYCIQALQTPWTFGQGTKVEIK
notes: Tested in human IgG1 Fc format (H1H prefix); first obtained as H1M (mouse IgG1 Fc) from a hybridoma; also called H1M085N; H1H085N
Consider B2, for which, in experiment [1], binding was put at a Kd of 15500 pM, the koff was 0.00185 s⁻¹, the kon was 119000 M⁻¹ s⁻¹ and the t1/2 amounted to 6 min. The “IC50 of A431 Proliferation” value in experiment [4] worked out at 1.65e-09 Molar. In experiment [2], this molecule came in with a dissociation constant Kd of 120 pM, a koff of 4.05e-05 s⁻¹, a kon of 336000 M⁻¹ s⁻¹ and a t1/2 of 4.77 h. In experiment [3], the “ADCC EC50” value was determined as 3.7e-13 Molar and the “Maximum Cell Killing (%)” value came out at 35%.

B3: H1H089N (antibody, human IgG1, V domains shown)
VH: B2 VH with E105D
VL: B2 VL with Y35H, T58N
notes: Tested in human IgG1 Fc format (H1H); also called H1M089N
For the molecule B3, in experiment [1], binding was characterised by a dissociation constant (Kd) of 21800 pM, the koff was 0.00683 s⁻¹, the kon was determined as 313000 M⁻¹ s⁻¹ and the t1/2 was determined as 2 min. Besides, the “IC50 of A431 Proliferation” value in experiment [4] stood at 2.3e-09 Molar. In experiment [2], this molecule showed a Kd of 30.1 pM, a koff of 4.49e-05 s⁻¹, a kon of 1.49e+06 M⁻¹ s⁻¹ and a t1/2 of 4.28 h. Moreover, in experiment [3], the “ADCC EC50” value was 5.83e-12 Molar and the “Maximum Cell Killing (%)” value is 53%.

B4: H1H086N (antibody, human IgG1, V domains shown)
VH: B2 VH with E105D
VL: B2 VL with I94M
notes: Tested in human IgG1 Fc format (H1H); also called H1M086N
As for B4, in experiment [1], the Kd amounted to 1310 pM, the koff is 0.000708 s⁻¹, the on-rate (kon) was found to be 540000 M⁻¹ s⁻¹ and the t1/2 came to 16 min. Further, the “IC50 of A431 Proliferation” value in experiment [4] was determined as 5.46e-10 Molar. Moreover, in experiment [2], binding was characterised by a dissociation constant (Kd) of 5.98 pM, the off-rate (koff) worked out at 1.13e-05 s⁻¹, the kon was determined as 1.9e+06 M⁻¹ s⁻¹ and the t1/2 worked out at 17 h. Also, in experiment [3], the “ADCC EC50” value turned out to be 2.91e-13 Molar and the “Maximum Cell Killing (%)” value stood at 25%.

B5: H1H169P (antibody, human IgG1, V domains shown)
VH: EVQLVESGGGLVQPGGSLRLSCAASRFTFSTYWMSWVRQAPGKGLEWVAKIKQDGSEKYYLDSVKDRFTISRDNAKNSLYLQMNSLRAEDTAVYYCASSITWYDYYYGMDVWGHGTTVTVSS
VL: EIVLTQSPDFQSVTPKEKVTITCRASQSIGSNLHWYQQKPDQSPNLLIKFASQSFSGVPSRFSGSGSGTDFTLTINSLEAEDAATYYCHQTNFLPHTFGGGTKVEIK
notes: Human IgG1 Fc (H1H)
As for B5, in experiment [1], binding was put at a Kd of 1310 pM, the koff was found to be 0.000869 s⁻¹, the kon is 665000 M⁻¹ s⁻¹ and the t1/2 worked out at 13 min. In addition, in experiment [2], the dissociation constant (Kd) is 7.36 pM, the koff was found to be 1.69e-05 s⁻¹, the kon was 2.29e+06 M⁻¹ s⁻¹ and the t1/2 stood at 11.4 h. In addition, in experiment [3], the “ADCC EC50” value is 4.81e-09 Molar and the “Maximum Cell Killing (%)” value came to 27%.

B6: H1H147P (antibody, human IgG1, V domains shown)
VH: EVQLVESGPGLVQPSQTLSLTCTVSGGSINSGDFYWSWIRQHPGKGLEWIGHIYYSGITYYSPSLKSRLTISVDTSKNQFSLKLSSVTAADTAVYYCARKRVTGEVDYWGQGTLVTVSS
VL: DIQMTQSPSSLSASVGDRITITCQANQDINNYLNWYQQKPGKAPKLLISDASNLETGVPSRFSGSGSGTDFTFTISSLQPEDIATYYCQQYDNLPPTFGQGTRLEIKR
notes: Human IgG1 Fc (H1H)
Consider B6, for which, in experiment [1], the Kd amounted to 5760 pM, the koff was found to be 0.000376 s⁻¹, the kon amounted to 65400 M⁻¹ s⁻¹ and the t1/2 was determined as 31 min. The “IC50 of A431 Proliferation” value in experiment [4] is 9.77e-11 Molar. In experiment [2], this molecule returned a Kd of 66.4 pM, a dissociation rate constant (koff) of 1.26e-05 s⁻¹, a kon of 190000 M⁻¹ s⁻¹ and a t1/2 of 15.2 h. Further, the “Maximum Cell Killing (%)” value in experiment [3] came out at 13%.

B7: H1H151P (antibody, human IgG1, V domains shown)
VH: QVQLQESGPGLVNPSQTLSLTCTVSGGSINSGDYYWSWVRQHPGKGLEWIGYIYYSGSTYYNPSLKSRVTISVDTSKNQFSLKLSSVTVADTAVYYCARVGYSKGYFDSWGQGTLVTVSS
VL: DIQMTQSPSTLSASVGDRVTITCRASESISSWLAWYQQKPGKAPKVLIYDASSLESGVPSRFSGSGSGTEYTLTISSLQPDDFASYYCQQYKSYWTFGQGTKVEIK
notes: Human IgG1 Fc (H1H)
With B7, in experiment [1], binding was characterised by a dissociation constant (Kd) of 8400 pM, the dissociation rate constant (koff) stood at 0.00113 s⁻¹, the association rate constant (kon) was determined as 134000 M⁻¹ s⁻¹ and the t1/2 was found to be 10 min. Besides, the “IC50 of A431 Proliferation” value in experiment [4] amounted to 2.77e-10 Molar. In experiment [3], the “ADCC EC50” value is 5.48e-09 Molar and the “Maximum Cell Killing (%)” value came to 68%.

B8: H1H142P (antibody, human IgG1, V domains shown)
VH: QVQLQESGPGLVKPSQTLSLTCTVSGGSISSGDYYWNWIRQYPGKGLELIGYIYYSGITYYNPSLKSRLTISLDTSKNQFSLKLSSVTAADTAVYYCARDRVELRAFDIWGQGTMVTVSS
VL: DIQMTQSPSSLSASIGDRITISCQASQDINNYLNWYQQKPGKAPKLLIYDASNLETGIPSRFSGSGSGTDFTFTISGLQPEDIATYYCQHYDSLPLTFGQGTRLEIK
notes: Human IgG1 Fc (H1H)
Consider B8, for which, in experiment [1], binding was characterised by a dissociation constant (Kd) of 4350 pM, the koff stood at 0.000689 s⁻¹, the kon is 158000 M⁻¹ s⁻¹ and the t1/2 worked out at 17 min. Besides, the “IC50 of A431 Proliferation” value in experiment [4] turned out to be 5.47e-10 Molar. In experiment [2], the Kd came out at 33.2 pM, the koff amounted to 1.2e-05 s⁻¹, the kon is 361000 M⁻¹ s⁻¹ and the t1/2 was determined as 16.1 h. Further, in experiment [3], the “ADCC EC50” value came to 1.19e-12 Molar and the “Maximum Cell Killing (%)” value stood at 34%.

B9: H1H143P (antibody, human IgG1, V domains shown)
VH: QVQLQESGPGLVMPSQTLSLTCTVSGGSINSGDYYWNWIRQHPGKGLEWIGYIYYSEISYHNPSLKSRVTTSIDTSTNQFSLKLSSVTAADTAVYYCARDRVELRAFDIWGQGTMVTVSS
VL: B8 VL with I15V, I19V, S22T, N30S, I58V, G77S
notes: Human IgG1 Fc (H1H)
In experiment [1], B9 showed a Kd of 5710 pM, a koff of 0.000727 s⁻¹, a kon of 127000 M⁻¹ s⁻¹ and a t1/2 of 16 min. In experiment [4], the “IC50 of A431 Proliferation” value stood at 9.97e-11 Molar. In addition, in experiment [2], binding was characterised by a dissociation constant (Kd) of 35.4 pM, the koff turned out to be 1.35e-05 s⁻¹, the kon was 381000 M⁻¹ s⁻¹ and the t1/2 turned out to be 14.3 h. Besides, the “Maximum Cell Killing (%)” value in experiment [3] was 13%.

B10: H1H144P (antibody, human IgG1, V domains shown)
VH: B9 VH
VL: B8 VL with I15V, I19V, S22T, N30S, I58V, G77S
notes: Human IgG1 Fc (H1H)
With B10, in experiment [1], the dissociation constant Kd was determined as 5250 pM, the off-rate (koff) came to 0.000967 s⁻¹, the kon was 184000 M⁻¹ s⁻¹ and the t1/2 turned out to be 12 min. In addition, the “IC50 of A431 Proliferation” value in experiment [4] turned out to be 1.39e-11 Molar. In experiment [2], this molecule came in with a Kd of 21.7 pM, a koff of 1.94e-05 s⁻¹, a kon of 894000 M⁻¹ s⁻¹ and a t1/2 of 9.93 h. Moreover, in experiment [3], the “ADCC EC50” value stood at 4.57e-11 Molar and the “Maximum Cell Killing (%)” value stood at 43%.

B11: H1H141P (antibody, human IgG1, V domains shown)
VH: B8 VH
VL: B8 VL with I15V, I19V, S22T, N30S, Y49N, I58V, G77S
notes: Human IgG1 Fc (H1H)
With B11, in experiment [1], the equilibrium dissociation constant (Kd) was found to be 1020 pM, the off-rate constant (koff) worked out at 0.000405 s⁻¹, the kon is 396000 M⁻¹ s⁻¹ and the t1/2 worked out at 29 min. The “IC50 of A431 Proliferation” value in experiment [4] came out at 1.41e-10 Molar. In experiment [2], this molecule displayed a Kd of 8.31 pM, a koff of 7.51e-06 s⁻¹, a kon of 903000 M⁻¹ s⁻¹ and a t1/2 of 25.6 h. Also, in experiment [3], the “ADCC EC50” value turned out to be 2.78e-12 Molar and the “Maximum Cell Killing (%)” value came out at 41%.

B12: H1H102N (antibody, human IgG1, V domains shown)
VH: QVQLQESGPGLVQPSQTLSLTCTVSGGSVSSGDYYWSWIRQHPGKGLEWIGHIYYSGITYYNPSLESRVTITLDTSKNQFSLNLRSVTAADTAVHYCARTAIIGTMDNWGRGTLVTVSS
VL: EIVMTQSPATLSVSPGERATLSCRASQSVSSNLAWYQQKPGQAPRLLIYDASTRATGFPARFSGSGSGTEFTLTISSLQSEDFAVYYCQQYNTWWTFGQGTKVEIK
notes: Tested in human IgG1 Fc format (H1H); also called H1M102N
Regarding B12, in experiment [1], the Kd is 5670 pM, the koff came to 0.000943 s⁻¹, the kon was found to be 166000 M⁻¹ s⁻¹ and the t1/2 turned out to be 12 min. In addition, in experiment [4], the “IC50 of A431 Proliferation” value amounted to 2.88e-10 Molar. In experiment [2], the Kd was 65.1 pM, the off-rate (koff) is 5.62e-05 s⁻¹, the on-rate (kon) was 863000 M⁻¹ s⁻¹ and the t1/2 worked out at 3.43 h. Besides, in experiment [3], the “ADCC EC50” value was found to be 4.39e-13 Molar and the “Maximum Cell Killing (%)” value stood at 48%.

In general, Kd refers to the constant that tells how readily two partners part at equilibrium. The term koff denotes a measure of how fast the partners let go of each other. Read a high koff as fast dissociation. What is called kon is a measure of how fast the partners come together. Lower therefore signals slow association.
